Measured values as given in US7592006 (UNIVERSIT CATHOLIQUE DE LOUVAIN, dated 2009).

Key:
human CD2 [1] = biological target: T1, human CD2 (human, UniProt P06729 25-351); experiment: two color flow cytometry on human PBMC, biotinylated LO-CD2a and Leu-5bPE; Y axis (FL2) taken as Leu-5b-PE, inferred
T1 construct: whole, on cells; The plasmid is cited from Peterson and Seed, Nature 1987; also called CD2 antigen; wild-type CD2
T1 sequence (looked up): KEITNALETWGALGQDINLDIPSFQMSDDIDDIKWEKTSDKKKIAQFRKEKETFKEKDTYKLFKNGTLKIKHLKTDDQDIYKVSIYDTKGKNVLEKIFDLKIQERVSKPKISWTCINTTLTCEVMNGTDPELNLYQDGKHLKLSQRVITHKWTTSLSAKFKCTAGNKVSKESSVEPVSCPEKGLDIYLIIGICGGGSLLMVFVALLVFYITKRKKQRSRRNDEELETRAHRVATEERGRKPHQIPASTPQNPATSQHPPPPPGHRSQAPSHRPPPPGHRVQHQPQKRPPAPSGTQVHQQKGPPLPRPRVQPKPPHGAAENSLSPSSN

human CD2 [2] = biological target: T1, human CD2; experiment: two color flow cytometry on human PBMC, biotinylated LO-CD2a and Leu-5bPE; upper left quadrant taken as Leu-5b-PE positive, LO-CD2a below the quadrant limit (axes inferred: X = FL1 LO-CD2a, Y = FL2 Leu-5b-PE)
human CD2 [3] = biological target: T1, human CD2; experiment: flow cytometry on CD2-expressing Jurkat cells, 0 to 4 µg/ml antibody (FIG. 35)
Protocol: Transient expression in COS cells and detection of secreted antibody were carried out as described previously for the chimeric antibody. The humanized antibody was purified by affinity chromatography (Protein A). […] The Jurkat cell line, which expresses CD2, was stained with rat LO-CD2a, the humanized LO-CD2a (LO-CD2aHu), or rat IgG2b or human IgG controls. Antibody concentrations ranged from 0 to 4 ig/ml. […] Bound antibodies were detected with an isotype-specific FITC-conjugated antisera. The results shown in FIG. 35 are expressed as the percentage of cells positively stained by the antibodies over the range of concentrations mentioned hereinabove. Functional studies indicate that the humanized antibody is also capable of inhibiting a primary MLR. Nanogram quantities of LO-CD2a, LO-CD2aHu, rat IgG2b control, or human IgG1 control were added to culture wells containing equivalent numbers of human peripheral blood mononuclear cells (PBMC) from a designated responder and stimulator (irradiated cells). Control wells contained no antibody. The cultures were incubated for 5 days, then pulsed overnight with tritiated thymidine. (3HT). Proliferation is detected by the uptake of 3HT. The results, as given in Table 3 below, are expressed as the mean CPM as recorded by a Beta plate reader.

| Molecule | Y MEAN fluorescence (quadrant 1UL) (human CD2 [1]) | Y MEAN fluorescence (quadrant 2UR) (human CD2 [1]) | Y MEAN fluorescence (quadrant 4LR) (human CD2 [1]) | % GATED (quadrant 1UL) (human CD2 [2]) [%] | binding result (human CD2 [3]) |
| --- | --- | --- | --- | --- | --- |
| Leu-5b, mouse anti-human CD2 monoclonal antibody (Becton Dickinson) | 285 | 631 | 6.54 | 23.2 |  |
| humanized LO-CD2a (antibody, V domains shown, Variable regions were cloned into the MRC light (human kappa) and heavy (human gamma 1) chain vectors; Expressed in COS cells and purified on Protein A; also called LO-CD2aHu; humanized antibody) VH: QVQLVQSGAEVKKPGASVKVSCKASGYTFTEYYMYWVRQAPGQGLELMGRIDPEDGSIDYVEKFKKKVTLTADTSSSTAYMELSSLTSDDTAVYYCARGKFNYRFAYWGQGTLVTVSS VL: DVVMTQSPPSLLVTLGQPASISCRSSQSLLHSSGNTYLNWLLQRPGQSPQPLIYLVSKLESGVPDRFSGSGSGTDFTLKISGVEAEDVGVYYCMQFTHYPYTFGQGTKLEIK |  |  |  |  | binds |
